Measured values: publication PMC4414297, “An epitope tag alters phosphoglycerate dehydrogenase structure and impairs ability to support cell proliferation” (Cancer & Metabolism, 2015)

Biological target: the molecule itself
Experiment: negative-stain electron microscopy; 12 ng/ul His-PHGDH or 15 ng/ul untagged PHGDH with 0.5 mM NADH, 2% uranyl acetate; reference-free alignment, class averages, particle areas compared

B1: recombinant untagged PHGDH (D-3-phosphoglycerate dehydrogenase) (enzyme, human, UniProt O43175 1-533, looked up)
chain: MAFANLRKVLISDSLDPCCRKILQDGGLQVVEKQNLSKEELIAELQDCEGLIVRSATKVTADVINAAEKLQVVGRAGTGVDNVDLEAATRKGILVMNTPNGNSLSAAELTCGMIMCLARQIPQATASMKDGKWERKKFMGTELNGKTLGILGLGRIGREVATRMQSFGMKTIGYDPIISPEVSASFGVQQLPLEEIWPLCDFITVHTPLLPSTTGLLNDNTFAQCKKGVRVVNCARGGIVDEGALLRALQSGQCAGAALDVFTEEPPRDRALVDHENVISCPHLGASTKEAQSRCGEEIAVQFVDMVKGKSLTGVVNAQALTSAFSPHTKPWIGLAEALGTLMRAWAGSPKGTIQVITQGTSLKNAGNCLSPAVIVGLLKEASKQADVNLVNAKLLVKEAGLNVTTSHSPAAPGEQGFGECLLAVALAGAPYQAVGLVQGTTPVLQGLNGAVFRPEVPLRRDLPLLLFRTQTSDPAMLPTMIGLLAEAGVRLLSYQTSLVSDGETWHVMGISSLLPSLEAWKQHVTEAFQFHF
notes: D-3-phosphoglycerate dehydrogenase (PHGDH), human, expressed from pET28a PHGDH without a tag; Oligomer size is left open (dimer, trimer, or tetramer); also called rPHGDH; source: E. coli BL21, purified (Cibacron Blue F3GA, MonoQ, Sephacryl S-200)
Question: Does B1 bind?
Answer: Result: binds
